Reference: patent US12269859B2, “Synthetic immune receptors and methods of use thereof” (Angeles Therapeutics, Inc., priority 2016, dated 2025)

B1: 042916-D02 (protein)
chain: MALPVTALLLPLALLLHAARPLEGKPIPNPLLGLDSTGSGEDLKNVFPPEVAVFEPSKAEIAHTQKATLVCLATGFYPDHVELSWWVNGKEVHSGVCTDPQPLKEQPALNDSRYCLSSRLRVSATFWQNPRNHFRCQVQFYGLSENDEWTQDRAKPVTQIVSAEAWGRADCGITSASYHQGVLSATILYEILLGKATLYAVLVSALVLMAMVKRKDSRGRAKRSGSGATNFSLLKQAGDVEENPGPTSTMALPVTALLLPLALLLHAARPDVQMIQTPSSLSASLGDRVTISCRASQDIGNYLNWYQQKPDGTVKLLIYYTSRLHSGVPSRFSGSGSGTEYSLTISNLEQEDIATYFCQQGSALPPTFGGGTKLEINGGGGSGGGGSGGGGSALQLQQSGAELVRPGASVTLSCKASGYTFTDYEMHWVKQTPVHGLEWIGAIDPETGGTAYNQKFEGKAILTADKSSSTAYMELRSLTSEDSPVYYCARRRYYGSSSFDYWGQGTTLTVSSTREQKLISEEDGSGIQNPDPAVYQLRDSKSSDKSVCLFTDFDSQTNVSQSKDSDVYITDKCVLDMRSMDFKSNSAVAWSNKSDFACANAFNNSIIPEDTFFPSSDVPCDVKLVEKSFETDTNLNFQNLSVIGFRILLLKVAGFNLLMTLRLWSSRAKRSGSGVKQTLNFDLLKLAGDVESNPGPSRGHMTEYKPTVRLATRDDVPRAVRTLAAAFADYPATRHTVDPDRHIERVTELQELFLTRVGLDIGKVWVADDGAAVAVWTTPESVEAGAVFAEIGPRMAELSGSRLAAQQQMEGLLAPHRPKEPAWFLATVGVSPDHQGKGLGSAVVLPGVEAAERAGVPAFLETSAPRNLPFYERLGFTVTADVEVPEGPRTWCMTRKPGA
modifications: Synthetic Immune Receptor (SIR)
B2: 042916-C05 (protein)
chain: MALPVTALLLPLALLLHAARPLEGKPIPNPLLGLDSTGSGEDLKNVFPPEVAVFEPSKAEIAHTQKATLVCLATGFYPDHVELSWWVNGKEVHSGVCTDPQPLKEQPALNDSRYCLSSRLRVSATFWQNPRNHFRCQVQFYGLSENDEWTQDRAKPVTQIVSAEAWGRADCGITSASYHQGVLSATILYEILLGKATLYAVLVSALVLMAMVKRKDSRGRAKRSGSGATNFSLLKQAGDVEENPGPTSTMALPVTALLLPLALLLHAARPDVQMIQTPDSLAVSLGQRATISCRASESVDNYGISFMHWYQQKPGQSPKLLIYRASNLESGIPARFSGSGSRTDFTLTINPVETDDVATYYCQQNNKDPPTFGGGTKLEIKGGGGSGGGGSGGGGSGGGGSQVQLQQSGAELVKPGASVKISCKASGYAFSSYWMNWVKQRPGKGLEWIGQIYPGDGDTTYNGKFKGKATLTADKSSSTVYMQLNSLTSEDSAVYFCVRYYYGSSGYFDYWGQGTTLTVSSTREQKLISEEDGSGIQNPDPAVYQLRDSKSSDKSVCLFTDFDSQTNVSQSKDSDVYITDKCVLDMRSMDFKSNSAVAWSNKSDFACANAFNNSIIPEDTFFPSSDVPCDVKLVEKSFETDTNLNFQNLSVIGFRILLLKVAGFNLLMTLRLWSSRAKRSGSGVKQTLNFDLLKLAGDVESNPGPSRGHMTEYKPTVRLATRDDVPRAVRTLAAAFADYPATRHTVDPDRHIERVTELQELFLTRVGLDIGKVWVADDGAAVAVWTTPESVEAGAVFAEIGPRMAELSGSRLAAQQQMEGLLAPHRPKEPAWFLATVGVSPDHQGKGLGSAVVLPGVEAAERAGVPAFLETSAPRNLPFYERLGFTVTADVEVPEGPRTWCMTRKPGA
modifications: Synthetic Immune Receptor (SIR)
B3: 121515-X07 (protein)
chain: MALPVTALLLPLALLLHAARPLEGKPIPNPLLGLDSTGSGEDLKNVFPPEVAVFEPSKAEIAHTQKATLVCLATGFYPDHVELSWWVNGKEVHSGVCTDPQPLKEQPALNDSRYCLSSRLRVSATFWQNPRNHFRCQVQFYGLSENDEWTQDRAKPVTQIVSAEAWGRADCGITSASYHQGVLSATILYEILLGKATLYAVLVSALVLMAMVKRKDSRGRAKRSGSGATNFSLLKQAGDVEENPGPTSTMALPVTALLLPLALLLHAARPDEIVLTQSPATLSLSPGERATLSCSASSSVSYMHWYQQKPGQAPRLLIYDTSKLASGIPARFSGSGSGTDFTLTISSLEPEDVAVYYCFQGSVYPFTFGQGTKLEIKRGGGGSGGGGSGGGGSQVQLQESGPGLVKPSQTLSLTCTVSGGSISTSGMGVGWIRQHPGKGLEWIGHIWWDDDKRYNPALKSRVTISVDTSKNQFSLKLSSVTAADTAVYYCARMELWSYYFDYWGQGTLVTVSSTREQKLISEEDLGSGTPFPSLAPPIMLLVDGKQQMVVVCLVLDVAPPGLDSPIWFSAGNGSALDAFTYGPSPATDGTWTNLAHLSLPSEELASWEPLVCHTGPGAEGHSRSTQPMHLSGEASTARTCPQEPLRGTPGGALWLGVLRLLLFKLLLFDLLLTCSCLCDPAGPLPSPATTTRLRALGSHRLHPATETGGREATSSPRPQPRDRRWGDTPPGRKPGSPVRAKRSGSGVKQTLNFDLLKLAGDVESNPGPSRGHMTEYKPTVRLATRDDVPRAVRTLAAAFADYPATRHTVDPDRHIERVTELQELFLTRVGLDIGKVWVADDGAAVAVWTTPESVEAGAVFAEIGPRMAELSGSRLAAQQQMEGLLAPHRPKEPAWFLATVGVSPDHQGKGLGSAVVLPGVEAAERAGVPAFLETSAPRNLPFYERLGFTVTADVEVPEGPRTWCMTRKPGA
modifications: Synthetic Immune Receptor (SIR)
B4: 052316-D03 (protein)
chain: MALPVTALLLPLALLLHAARPDEIVLTQSPATLSLSPGERATLSCSASSSVSYMHWYQQKPGQAPRLLIYDTSKLASGIPARFSGSGSGTDFTLTISSLEPEDVAVYYCFQGSVYPFTFGQGTKLEIKRGGGGSGGGGSGGGGSQVQLQESGPGLVKPSQTLSLTCTVSGGSISTSGMGVGWIRQHPGKGLEWIGHIWWDDDKRYNPALKSRVTISVDTSKNQFSLKLSSVTAADTAVYYCARMELWSYYFDYWGQGTLVTVSSLEDLKNVFPPEVAVFEPSEAEISHTQKATLVCLATGFYPDHVELSWWVNGKEVHSGVSTDPQPLKEQPALNDSRYCLSSRLRVSATFWQNPRNHFRCQVQFYGLSENDEWTQDRAKPVTQIVSAEAWGRADCGFTSESYQQGVLSATILYEILLGKATLYAVLVSALVLMAMVKRKDSRGRAKRSGSGATNFSLLKQAGDVEENPGPTSMDWIWRILFLVGAATGAHSFEGSGTREQKLISEEDGSGIQNPDPAVYQLRDSKSSDKSVCLFTDFDSQTNVSQSKDSDVYITDKCVLDMRSMDFKSNSAVAWSNKSDFACANAFNNSIIPEDTFFPSPESSCDVKLVEKSFETDTNLNFQNLSVIGFRILLLKVAGFNLLMTLRLWSSRAKRSGSGVKQTLNFDLLKLAGDVESNPGPSRGHMTEYKPTVRLATRDDVPRAVRTLAAAFADYPATRHTVDPDRHIERVTELQELFLTRVGLDIGKVWVADDGAAVAVWTTPESVEAGAVFAEIGPRMAELSGSRLAAQQQMEGLLAPHRPKEPAWFLATVGVSPDHQGKGLGSAVVLPGVEAAERAGVPAFLETSAPRNLPFYERLGFTVTADVEVPEGPRTWCMTRKPGA
modifications: Synthetic Immune Receptor (SIR)
B5: 052316-J03 (protein)
chain: MALPVTALLLPLALLLHAARPDEIVLTQSPATLSLSPGERATLSCSASSSVSYMHWYQQKPGQAPRLLIYDTSKLASGIPARFSGSGSGTDFTLTISSLEPEDVAVYYCFQGSVYPFTFGQGTKLEIKRGGGGSGGGGSGGGGSQVQLQESGPGLVKPSQTLSLTCTVSGGSISTSGMGVGWIRQHPGKGLEWIGHIWWDDDKRYNPALKSRVTISVDTSKNQFSLKLSSVTAADTAVYYCARMELWSYYFDYWGQGTLVTVSSTREQKLISEEDGSGIQNPDPAVYQLRDSKSSDKSVCLFTDFDSQTNVSQSKDSDVYITDKTVLDMRSMDFKSNSAVAWSNKSDFACANAFNNSIIPEDTFFPSPESSCDVKLVEKSFETDTNLNFQNLSVIGFRILLLKVAGFNLLMTLRLWSSRAKRSGSGVKQTLNFDLLKLAGDVESNPGPSRGHMTEYKPTVRLATRDDVPRAVRTLAAAFADYPATRHTVDPDRHIERVTELQELFLTRVGLDIGKVWVADDGAAVAVWTTPESVEAGAVFAEIGPRMAELSGSRLAAQQQMEGLLAPHRPKEPAWFLATVGVSPDHQGKGLGSAVVLPGVEAAERAGVPAFLETSAPRNLPFYERLGFTVTADVEVPEGPRTWCMTRKPGA
modifications: Synthetic Immune Receptor (SIR)

System: target antigen-expressing cell line
Assay: Jurkat NFAT-GFP assay, coculture with target cell lines expressing the respective target antigen (summary Table 10A)
Format: cell-based, human
Design: key: The signs +/−, +, 2+ etc. after the name of the cell lines indicate the relative degree of positivity on the Jurkat-NFAT-GFP assay as measured by the % GFP positive cells; +: relative degree of positivity on the Jurkat-NFAT-GFP assay as measured by the % GFP positive cells; 2+: relative degree of positivity on the Jurkat-NFAT-GFP assay as measured by the % GFP positive cells
Conditions: relative % GFP positive cells; for NFAT-GFP ASSAY Positive Cell lines: LAN5: SIR-expressing Jurkat-NFAT-GFP cells cocultured with LAN5; for NFAT-GFP ASSAY Positive Cell lines: RAJI: SIR-expressing Jurkat-NFAT-GFP cells cocultured with RAJI
Method: (B) Induction of NFAT promoter driven GFP expression. The control vector- and SIR-expressing Jurkat-NFAT-GFP cocultured for 4-24 hours with the target antigen-expressing cell line (described above) and their ability to bind to the target antigen is assayed by measuring induction of GFP expression using Flow Cytometry. Cellular supernatant is collected and assayed for the induction of cytokines (e.g., IL2).
Jurkat NFAT-GFP Assay For Synthetic Immune Receptors. The Jurkat-NFAT-GFP cells are engineered in such a way that the IL-2 promoter, which carries NFAT binding sites, is cloned upstream of the GFP gene. These cells have been used to study signaling via TCR and CAR. The different SIRs were stably expressed in Jurkat NFAT-GFP cells by lentiviral mediated gene transfer, followed by selection with puromycin. The SIR-expressing Jurkat-NFAT-GFP cells were cocultured with the target cells at E:T ratio of approximately 1:2 for approximately 4 hours to 18 hours. When the interaction between SIRs and their target antigen results in activation of the NFAT pathway, GFP expression is induced.
Induction of GFP expression by coculturing of Jurkat-NFAT-GFP cells expressing different SIR constructs and the different target cells was studied essentially as described previously (Wu, Roybal, Puchner, Onuffer, & Lim, 2015). GFP expression was monitored by FACS analysis. A few representative examples of this assay are shown in the FIG. 13A-B. In panel A, control Jurkat-NFAT-GFP cells or those expressing SIRs targeting CD19 (clone ID 051716-I08), MPL (Clone ID: 040716-A07) and BCMA (Clone ID: 011116-A07) were incubated with RAJI (top), HEL (middle) or U266 (bottom) cells, respectively. […] In panel B, Jurkat cells expressing SIR targeting CDH6 (Clone ID: 051716-J05), CD276 (Clone ID: 050516-Q06) and Her2/neu (Clone ID: 050516-I03) were incubated with SKOV3 (top) and […] (middle and bottom) cells, respectively. […] The Jurkat-NFAT-GFP cells were engineered to express different SIRs targeting other antigens and the experiment repeated upon coculture with the target cells expressing their respective target antigen. The Jurkat-NFAT-GFP (parental) cells were used as control. The names of different SIRs, their SEQ ID NOs, component antigen binding domains and TCR chains can be determined by reference to Tables 7A-7H. A SIR is considered positive in the assay in case the SIR expressing Jurkat-NFAT-GFP cells show greater % GFP positive cells when cultured with the target cell line as compared to parental Jurkat-NFAT-GFP cells. […] The signs +/−, +, 2+ etc. after the name of the cell lines indicate the relative degree of positivity on the Jurkat-NFAT-GFP assay as measured by the % GFP positive cells after culture of the SIR expressing Jurkat-NFAT-GFP cells with that cell line. […] In addition, great diversity of response against the same target cell line is observed with Jurkat cells expressing SIRs containing different antigen binding domains targeting the same antigen (e.g., SIRs having antigen binding domains derived form different CD19 antibodies) even when the SIRs share the same TCR chains and linkers. Finally, Jurkat cells expressing SIRs targeting different antigens (e.g. CD19 vs CD20) show a diversitiy of response when exposed to the same target cell line. Thus, a diverse immune response can be generated against a single target cell by combining SIRs with different TCR chains, linkers, antigen binding domains and target specificity. Table 10A also summarizes the results of GLuc based T cell cytotoxicity assay observed with different SIRs when exposed to their target cell lines. […]

Molecule | NFAT-GFP ASSAY Positive Cell lines: LAN5 | NFAT-GFP ASSAY Positive Cell lines: RAJI
B1 | LAN5 (2+) | –
B2 | LAN5 (+/−) | –
B3 | – | RAJI (+)
B4 | – | RAJI (+)
B5 | – | RAJI (+)
